Fewer inactive variants are shown than the library holds.

From the supplement of paper PMC9233669 come the findings set out here.

The test system of one data set is biotinyl-Phe-oxazolone. The data set can be described thus: self-aminoacylation, catalytic enhancement (BFO) (fold over background); higher = more active; k-Seq, kA / k0A0; sequences stand for … in GGGAAUGGAUCCACAUCUACGAAUUC…UUCACUGCAGACUUGACGAAGCUG
The essentials: (§1)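 Working in 50 μL HEPES/NaCl/KCl/MgCl2/CaCl2 buffer with 5% acetonitrile at pH 6.9–7.0, mutagenized RNA pools (0.43 μM; 21-nt variable region) were reacted with 2–1250 μM of each biotinyl-aminoacyl-oxazolone for 90 minutes at room temperature. Streptavidin capture followed, with quantification by triplicate qPCR and Illumina sequencing. Catalytic enhancement is reported as median kA over the uncatalyzed rate, the low-activity peak of a bimodal Gaussian fit to the data.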

For a further data set, the system named is biotinyl-Trp-oxazolone. Put plainly: self-aminoacylation, catalytic enhancement (BWO) (fold over background); higher = more active; k-Seq, kA / k0A0; sequences stand for … in GGGAAUGGAUCCACAUCUACGAAUUC…UUCACUGCAGACUUGACGAAGCUG
The procedure, abridged:
as §1

For “CUACUUCAAACAAUCAGUCUG [Fam1A.1 aminoacylation ribozyme variant]”, the self-aminoacylation was found to be 27.8 in the data set with biotinyl-Phe-oxazolone and 9.7 in the data set with biotinyl-Trp-oxazolone.
For “CCAGACUUCAAGUAAUCGGUC [Fam1B.1 aminoacylation ribozyme variant]” the same measures were 11.5 and 8.35.
The like results for “AUACUUCAAACAAUCGGUCUG [Fam1A.1 aminoacylation ribozyme variant]” were, in that order, 14.7 and 9.11.
On to “CUUCUUCAAACAAUCGGUCCG [Fam1A.1 aminoacylation ribozyme variant]”, for which the values for the self-aminoacylation in the data set on biotinyl-Phe-oxazolone and in the data set with biotinyl-Trp-oxazolone were 3.96 and 2.74, respectively.
On to “CAACAUCAAACAAUCGGUCUG [Fam1A.1 aminoacylation ribozyme variant]”, for which the self-aminoacylation in the data set on biotinyl-Phe-oxazolone was 7.46; with biotinyl-Trp-oxazolone, 3.73.
For “CGAGUUCAAACAAUCGGUCUG [Fam1A.1 aminoacylation ribozyme variant]” the same measures were 6.84 and 4.57.
For the sequence “CCAUACUUCAAUCAAUCGGUC [Fam1B.1 aminoacylation ribozyme variant]”, the self-aminoacylation in the data set on biotinyl-Phe-oxazolone amounted to 31.2; with biotinyl-Trp-oxazolone it was 15.9.
The like results for “UUACUCCAAACAAUCGGUCUG [Fam1A.1 aminoacylation ribozyme variant]” were, in that order, 3.73 and 2.69.
On to “AAACUUCAAACAAUCGGUCUG [Fam1A.1 aminoacylation ribozyme variant]”, for which the figures for the self-aminoacylation in the data set with biotinyl-Phe-oxazolone and in the data set with biotinyl-Trp-oxazolone were 30.9 and 18.7, respectively.
The like results for “CUCCUUCAAACAAUCAGUCUG [Fam1A.1 aminoacylation ribozyme variant]” were, in that order, 20 and 7.05.
The like results for “CUACUUCAAACAAUCGGACUG [Fam1A.1 aminoacylation ribozyme variant]” were, in that order, 17.5 and 7.87.
Turning to “CUACUUCAAACAAUCAGUCAG [Fam1A.1 aminoacylation ribozyme variant]”, the self-aminoacylation was found to be 6.15 with biotinyl-Phe-oxazolone and 2.43 in the data set with biotinyl-Trp-oxazolone.
The like results for “CAACCCUUCAAGCAAUCGGUC [Fam1B.1 aminoacylation ribozyme variant]” were, in that order, 2.9 and 2.72.
For “AAGUAUGCUAAUAGUCGCAAG [Fam3.1 aminoacylation ribozyme variant]” the same measures were 22.9 and 6.46.
Take “CUACUUCAAACAAUCGGUGUG [Fam1A.1 aminoacylation ribozyme variant]”: the self-aminoacylation in the data set on biotinyl-Phe-oxazolone stood at 10.2; in the data set on biotinyl-Trp-oxazolone it was 5.78.
For the sequence “CCGCACUUCAAGAAAUCGGUC [Fam1B.1 aminoacylation ribozyme variant]”, the self-aminoacylation in the data set on biotinyl-Phe-oxazolone was found to be 12.2; in the data set with biotinyl-Trp-oxazolone it was 10.3.
The like results for “CCACACUUCAAUGAAUCGGUC [Fam1B.1 aminoacylation ribozyme variant]” were, in that order, 14.4 and 10.3.
“ACAAACUUCAAGCAAUCGGUC [Fam1B.1 aminoacylation ribozyme variant]”: the self-aminoacylation with biotinyl-Phe-oxazolone amounted to 15; in the data set with biotinyl-Trp-oxazolone it was 9.7.
With “CUACACUUCAAGGAAUCGGUC [Fam1B.1 aminoacylation ribozyme variant]”, the self-aminoacylation amounted to 3.89 with biotinyl-Phe-oxazolone and 4.18 in the data set with biotinyl-Trp-oxazolone.
On to “CUACUUCAAACAAUCGGUCCU [Fam1A.1 aminoacylation ribozyme variant]”, for which the self-aminoacylation in the data set on biotinyl-Phe-oxazolone amounted to 6.8; in the data set on biotinyl-Trp-oxazolone, 3.25.
For “CUAAUUCAAACAAUCGGCCUG [Fam1A.1 aminoacylation ribozyme variant]” the same measures were 5.4 and 3.89.
For “CUAAUUCAAACAAUCGGUCUG [Fam1A.1 aminoacylation ribozyme variant]” the same measures were 7.13 and 3.52.
For “CCAUACUUCAACCAAUCGGUC [Fam1B.1 aminoacylation ribozyme variant]” the same measures were 32.7 and 17.2.
On to “CUACACUUCAAGUAAUCGGUC [Fam1B.1 aminoacylation ribozyme variant]”, for which the results for the self-aminoacylation with biotinyl-Phe-oxazolone and in the data set with biotinyl-Trp-oxazolone were 13.1 and 7.07, respectively.
For “AAGUUUGCCAAUUGUCGCAAG [Fam3.1 aminoacylation ribozyme variant]” the same measures were 2.77 and 2.15.
For “CUAUUUCAAACAAUCGGCCUG [Fam1A.1 aminoacylation ribozyme variant]” the same measures were 6.32 and 6.15.
For “CCAAACUUCAAGCAAUCGGUU [Fam1B.1 aminoacylation ribozyme variant]” the same measures were 5.01 and 4.36.
For the sequence “AAGUUAGCUAAUAGUCGUAAG [Fam3.1 aminoacylation ribozyme variant]”, the results for the self-aminoacylation in the data set with biotinyl-Phe-oxazolone and with biotinyl-Trp-oxazolone were 14 and 3.54, respectively.
The like results for “CCACUUCAAACAAUCAGUCUG [Fam1A.1 aminoacylation ribozyme variant]” were, in that order, 29.2 and 10.1.
For “AUUCACCUCGGUCAUCAGGUG [Fam2.2 aminoacylation ribozyme variant]” the same measures were 4.3 and 2.02.
Regarding “CAACUUCAAACAAUCGGUCCG [Fam1A.1 aminoacylation ribozyme variant]”, the self-aminoacylation in the data set with biotinyl-Phe-oxazolone amounted to 5.44; in the data set on biotinyl-Trp-oxazolone, 4.86.
With “CUACUUCAAUGAAUCGGUCUG [Fam1A.1 aminoacylation ribozyme variant]”, the results for the self-aminoacylation with biotinyl-Phe-oxazolone and with biotinyl-Trp-oxazolone were 7.24 and 5.68, respectively.
Take “CGGCACUUCAAGCAAUCGGUC [Fam1B.1 aminoacylation ribozyme variant]”: the self-aminoacylation in the data set with biotinyl-Phe-oxazolone came to 34.7; in the data set with biotinyl-Trp-oxazolone it was 20.1.
On to “CUCCUUCAAACAAUCGGUGUG [Fam1A.1 aminoacylation ribozyme variant]”, for which the self-aminoacylation with biotinyl-Phe-oxazolone stood at 8.49; with biotinyl-Trp-oxazolone, 6.8.
“UUACUUCAAACAAUCGGUCUU [Fam1A.1 aminoacylation ribozyme variant]”: the results for the self-aminoacylation in the data set with biotinyl-Phe-oxazolone and with biotinyl-Trp-oxazolone were 17 and 9.31, respectively.
For “AUGUUUGCUAAUAGUCGCAAG [Fam3.1 aminoacylation ribozyme variant]” the same measures were 12.9 and 4.22.
Consider “UCAAACUUCAAGCAAUCGGUC [Fam1B.1 aminoacylation ribozyme variant]”, for which the figures for the self-aminoacylation with biotinyl-Phe-oxazolone and with biotinyl-Trp-oxazolone were 25.8 and 15.9, respectively.
For the sequence “AGGUGUGCUAAUAGUCGCAAG [Fam3.1 aminoacylation ribozyme variant]”, the self-aminoacylation was found to be 5.87 in the data set with biotinyl-Phe-oxazolone and 2.52 in the data set with biotinyl-Trp-oxazolone.
The like results for “ACGUUUGCUAAUAGUCGCAAG [Fam3.1 aminoacylation ribozyme variant]” were, in that order, 9.06 and 3.66.
For “AUACAUCAAACAAUCGGUCUG [Fam1A.1 aminoacylation ribozyme variant]”, the results for the self-aminoacylation with biotinyl-Phe-oxazolone and in the data set on biotinyl-Trp-oxazolone were 4.05 and 2.68, respectively.
Take “CUACUUCAAAUAAUCGGACUG [Fam1A.1 aminoacylation ribozyme variant]”: the self-aminoacylation was determined as 6.03 in the data set with biotinyl-Phe-oxazolone and 2.71 in the data set with biotinyl-Trp-oxazolone.
For “CCCCAAUUCAAGCAAUCGGUC [Fam1B.1 aminoacylation ribozyme variant]” the same measures were 7.89 and 7.09.
The like results for “CUACACUUCAACCAAUCGGUC [Fam1B.1 aminoacylation ribozyme variant]” were, in that order, 59.2 and 30.
As for “CCAAACUUCAACCAAUCGGUC [Fam1B.1 aminoacylation ribozyme variant]”, the self-aminoacylation was 43.8 in the data set on biotinyl-Phe-oxazolone and 27.5 with biotinyl-Trp-oxazolone.
As to “CUACUUCAAACAAUCGGUCGC [Fam1A.1 aminoacylation ribozyme variant]”, the self-aminoacylation in the data set on biotinyl-Phe-oxazolone stood at 46.9; with biotinyl-Trp-oxazolone it was 26.2.
Regarding “CUACUUCAAACAAUCGGUUUA [Fam1A.1 aminoacylation ribozyme variant]”, the self-aminoacylation with biotinyl-Phe-oxazolone came out at 4.11; in the data set on biotinyl-Trp-oxazolone it was 2.11.
For “CCUCACUUCAAUCAAUCGGUC [Fam1B.1 aminoacylation ribozyme variant]” the same measures were 39.5 and 17.9.
The like results for “CGACUCCAAACAAUCGGUCUG [Fam1A.1 aminoacylation ribozyme variant]” were, in that order, 3.55 and 3.11.
As to “AAGUUCUCUAAUAGUCGCAAG [Fam3.1 aminoacylation ribozyme variant]”, the self-aminoacylation was 3.34 with biotinyl-Phe-oxazolone and 2.07 in the data set on biotinyl-Trp-oxazolone.
The like results for “GUACUUCAAACAAUCGGUAUG [Fam1A.1 aminoacylation ribozyme variant]” were, in that order, 11.5 and 9.84.
For “AUUGACCUAGGUCAUCGGGAG [Fam2.2 aminoacylation ribozyme variant]” the same measures were 3.29 and 2.04.
In the case of “CUACUUCAAAUAAUCGGUAUG [Fam1A.1 aminoacylation ribozyme variant]”, the figures for the self-aminoacylation in the data set on biotinyl-Phe-oxazolone and in the data set on biotinyl-Trp-oxazolone were 7.28 and 3.96, respectively.
The like results for “CUGCACUUCAAGCAAUCGGUC [Fam1B.1 aminoacylation ribozyme variant]” were, in that order, 52 and 28.1.
